Assay: yeast display, Sf9 membrane polyspecificity reagent, FACS + sequencing; frameworks hold sequencing errors
Procedure, shortened: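 Polyreactivity labels are assigned by the sorting gate from which each nanobody was recovered. The gates were low and high (top ~1%), set on anti-HA fluorescence for expression and streptavidin fluorescence for reagent binding. Before sorting, galactose-induced (36–48 hours) yeast display cells were stained for 1 hour at 4 °C with 10% biotinylated, detergent-solubilized Sf9 membrane reagent.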

Row | Sequence | polyreactivity (PSR sort gate)
1 | QVQLVESGGGLVQAGGSLRLSCAASGRIFKSYVMGWYRQAPGKERELVAAISWSGGTYYADSVMGRFTNSRDNAKNTVYLQMNCLKPEDTAVYYCAAYYLGSYNPLDYWGQGTQVTVSS | high polyreactivity
2 | QVQLVESGGGLVQAGGSLRLTCAASGFIFYYYTIGWYRQAPGKERELVAAIRTDGNTYYADSVKGRFTISRDNAKNTVYFQMNSLKPEDTAVYYCAAKIPRPYAMDYWGQGTQVTVSS | low polyreactivity
3 | QVQLVESGGGLVQAGGSLRLSCAASGSIFRYYAMGWYRQAPGKERELVAAISSSGGSTYYADSVKGRFTISRDNAKNTVYLQMNSLKPEDTAGYYCAAVYTQSNSATMYYWGQGTQVTVSS | high polyreactivity
4 | QVQLVESGVGLVQAGGSLRLSCAASGRTFPYNAMGWYRQAPGKERELVAVISSSGGSTYYADSVKGRFTISRDNAKNTVYLQMNSLKPEDTAVYYCNTRPYFYRRPGYRYSGYDYWGLGTQVTVSS | high polyreactivity
5 | QVQLVESGGGLVQAGGSLRLSCAASGRIFDANAMGWYRQAPGKERELVAAITYSGGRTYYADSVKGRFTISRDNAKNTVYLQMNSLKPVDTAVYYCAKRYAYIYDSWGQGTQVTVSS | low polyreactivity
6 | QVQLVESGGGLVQAGGSLRLSCAASGRTFLYNAMGWYRQAPGKERELVAAISWSGGSTYYADSVKGRFTISRDNAKNTVYLQMNSLKPEDTAVYYCAAYWVWPGRYWYDYWGQGTQVTVSS | high polyreactivity
7 | QVQLVESGGGLVQAGGSLRLSCAASGRIFLTYAMGWYRQAPGKERELVAAISTSGTRTYYADSVKGRFTISRDNAKNTVYLQMNSLKPEDTAVYYCAREKYNYRTYEYWGQGTQVTVSS | high polyreactivity
8 | QVQLVESGGGLVQAGGSLRLSCAASGRTFSGNTMGWYRQAPGKERELVAAITGRGGSTYYADSVKGRFTISRDNANNTVYLQMNSLKPEDTAVYYCAALRYTFAGRFDYWGQGTQVTVSS | high polyreactivity
9 | QVQLVESGGGLVQAGGSLRLSCAASGIIFYYYGMGWYRQAPGKEREFVAAISTSGGNTYYADSVKGRFTISRDNAKNTVYLQMNSLKPEDTAVYYCAADDLAWGDAGVDYWGQGTEVTVSS | low polyreactivity
10 | QVQLVESGGGLVQAGGSLRLSCAASGFTFTPYAMGWYRQAPGKERELVAAITSTGGSTYYADSVKGRFTISRHNAKNTVYLQMNSLKPEDAAVYYCNAATPYSWGYRRGYWGQGTQVTVSS | high polyreactivity
11 | QVQLVESGGGLVQAGGSLRLSCAASGRIFGRYAMGWYRQAPGKEREFVAAISKRGGGTYYADSVKGRFTISRDNAKNTVYLQMISLKPEDTAVYYCAVDNSPGFDDYDYWGQGTQVTVSS | high polyreactivity
12 | QVQHVESAGGLVQAGGSLRLSCAASGSTFSDYAMGRYRQAPGKERELVAAISRSGGSTYYADSVKGRFTISRDNAKNTVYLQMNSLKPEDTAVYYCAASRATLLRYGYWGQGTQVTVSS | low polyreactivity
13 | QVQRVESGGGFVQAGGSLRLSSAASGFTFGAYAMGWYRQAPGKEMELVASISWSGGSTYYADSVKGRFTISRVNAKNTVYLQMNSLKPEDTAVYYCNKDFVYPDDDGLFDYWGQGTQVTVSS | low polyreactivity
14 | QVQLVESGGGLVQAGGSLRLSCAPSGFTSWQYAMGWYRPAPGKERELVAAISVSGASTYYADSVKGRFTISRDNAKNTVYLQMNSLKPEDTAVYYCAAAYVRYPTTRYFYWGQGTQVTVSS | high polyreactivity
15 | QVQLVESGGGLVQAGGSLRLSCAASGSIFRFYAMGWYRQAPGKERELVAAISSGGSTYYADSVKGRFTISRDNAKNTVYLQMKSLKPEDTAVYYCAHGFAQYGLDLDPGDYDYWGQGTQVTVSS | low polyreactivity
16 | QGQLVESGGGLVQAGGSLRLSCAASGSIVFYYGMGWYRQAPGKERELVAAITWSGDSPYDADSVKGRFTISRDNAKNTVYLQLNSLKPEDTAVYYCNADQTSYYYPGNYDYWGQGTQVTVSS | high polyreactivity

Row | Sequence | polyreactivity (PSR sort gate)
17 | QVQLVESGGGLVQAGGSLRLSCAASGFTFWLYTMGWYRQAPGKERELVAAISWSGGSTYYADSVKGRFTISRDTAKNTVYLQMNSLKPEDTAVYYCNALYVGYYDSMGYWGQGTQVTVSS | high polyreactivity
18 | QVQLVESVGGLVQAGGSLRLSCAASGSTFKAYAVGWYRQAPGKEGELVAAITKSGGRTYYADSVKGRFTISLDNAKNTVYLQMNSLKPEDTAVYYCAAVFRPDSSAFRYYYWGQGTQVTVSS | high polyreactivity
19 | QVQLVESGGGLVQAGGSLRLSCAASGFIFRYYAMGSYRQAPGKERELVAAITSGGASTYYADSVKGRFTISRDNAMNTVYLQMNSLKPDDTAVYYCAADTSSYSEYEYWGQGTQVTVSS | low polyreactivity
20 | QVQLVESGGGLVQAGGSLRLSCAASGSIFVLNAMGWYRQAPGKERELVAAISSADSTTYADSVKGRFTISRDNAKNSVYLQMNSLKPEDTAVYYCAADWWYVLIFDYWGQGTQVTVSS | low polyreactivity
21 | QVQLVESGGGLVQAGGSLRLSCAASGSTSLIYAMGWYRQAPGKERELVARISGSGGSTFYADSVKGRFTISRDNAKNTVFLQMNSLKPEDTAVYYCAAYIRGRRYNWATVGYNYWGQGTQVTVSS | high polyreactivity
22 | QVQLVESGGGLVQAGGSLRLSCAASGSIVAGNAMGWYIQAPGKEREMVAAITWRSGRTYYADSVKGRFTISRDNAKNTVNLQMNSLKPVDTAVYYCARGRYGYTAPVRRWYFRYDYWGQGTQVTVSS | high polyreactivity
23 | QVQLEESGGGLVQAGGSLRLSCAASGRTFITYAMGWYRQAPGKVRELVASITSNGGRTYYADSVKGRFKISRDNAKNTVYLQMNSLKPEYTAVYYCSAGTRSRAPYYRTSVDTYGYWGQGTQVTVSS | low polyreactivity
24 | QVQLLETGRGLVQAGGSLRLSCAPSGITFRYYAMGWYRQAPGQERELVAAITRSGGSTYYADSVKGRFTLSRYNAKNTVYLQMNSLKPEDTAVYYCAAQPVSRHTGTFYRSNGYDYWGQVTQVTVSS | high polyreactivity
25 | QVQLVESGGGLVQAGGSLRLSCAASGRIYRYYAMGWYRQAPGKERELVAAITRSGGTTYYADSVKGRFTISRDNAKYTVYLQMNSLKPEDTAVYYCNAGVGQKYDYWGQVTQVTVSS | high polyreactivity
26 | QVQLVESGGGLVQAGGSLRLSCAASGFTFYKYVMGWYRQAPGKERELVAAITTSGGSTYYADSVKGRFTISRDNAKNTVYLQMNSLKPEDTAVYYCNALARWWAYYDYGYWGQGTQVTVSS | low polyreactivity
27 | QVQLVESGGGLVQAGGSLRLSCAASGFIFSRNAMGWYRQAPGKERELVAAISAGGGSTYYADSVKGRFTISLDNAKYTVYLQMNSLKPEDSAVYSCAAYFRSQFGYWGQGTEVTVSS | high polyreactivity
28 | RVQLVESGGGLVQAGGSLRLSCAASGSISQGNAMGWYRQAPGKERELVADIRWTSGRTYYADSVKGRFTISRDNAKNTVYLQMNSLKPEDTAVYYCAAYYVYYTPTLIDRDYWGQGNQVTVSS | low polyreactivity
29 | QVQLVESGGGLVQAGGSLRLSCAASGRIFGNTAMGWYRQAPGKERELVAAIRSRGTRTYYADSVKGRFTISRDNAKNTVYLQMNSLKPEDTAVYYCATTSLTGRYDRYDYWGQGTQVTVSS | high polyreactivity
30 | QVQLVESGGGLVQAGGSHRFSCAASGFTFGHDTMGWYRQAPGKERELVAAITWRGGTYYADSEKGRFTISRDNAMNTVYLQMNSMKPEDTAVYYCAKRRASRYYWGQGTQVTVSS | high polyreactivity
31 | QVQLVESGGGLVQAGGSLRLSCAASGRIFSGNAMGWYRQAPGKERELVAAISRGGSTDYADSVKGRFTISRDNAMNTVYLQMNSLKPEDTAVYYCAARVNGKRRRYDYWGQGTQVTVSS | high polyreactivity
32 | QVQLVESGGGLVQAGGSLHLSCAASGRTFVWYAMGWYRQAPGKERELVAAISWSGTSTYYADSVKGRFTNSRDYAKYNVYLQMNSLKPEDTAVYYCYEKYYYWGQGTQVTVSS | high polyreactivity

From the nanobody polyreactivity screen of Harvey et al. (2022)
